Reference: the supplement of paper PMC10065799, “High-throughput profiling of sequence recognition by tyrosine kinases and SH2 domains using bacterial peptide display” (eLife, 2023)

Experiments:
Grb2 SH2 = Grb2 SH2 (UniProt P62993); assay: SH2 binding enrichment of the phosphorylated peptide, bacterial display (enrichment ratio); higher = better substrate or ligand; peptides without Tyr show the background
SHP2-C SH2 = assay: as above
c-Src SH2 = assay: as above
Hck = Hck (UniProt P08631); assay: phosphorylation enrichment, bacterial display (enrichment ratio); higher = better substrate or ligand; peptides without Tyr show the background
FGFR1 = FGFR1 (UniProt P11362); assay: as above
Fyn = Fyn (UniProt P06241); assay: as above
MERTK = MERTK (UniProt Q12866); assay: as above
Jak2 = Jak2 (UniProt O60674); assay: as above
EPHB1 = EPHB1 (UniProt P54762); assay: as above
Fer (mouse) = assay: as above
EPHB2 = EPHB2 (UniProt P29323); assay: as above
AncSZ = assay: as above
FGFR3 = FGFR3 (UniProt P22607); assay: as above
c-Src = assay: as above
Fes = Fes (UniProt P07332); assay: as above
c-Abl (mouse) = assay: as above
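Throughout, for SH2 binding enrichment of the phosphorylated peptide, bacterial display: peptide library displayed on the E. coli surface as eCPX fusions, selected cells deep-sequenced, score is each peptide's frequency after selection divided by its frequency in the input.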
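Throughout, for phosphorylation enrichment, bacterial display: 11-residue human phosphosite peptides and single-mutation variants displayed on the E. coli surface, counted by deep sequencing, each peptide's frequency after selection divided by its frequency in the unselected input library; frequency after pTyr selection over input frequency; kinase dosed for 20-30% of maximal phosphorylation in three min.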

Sequence of Jak2 (O60674 whole entry, looked up): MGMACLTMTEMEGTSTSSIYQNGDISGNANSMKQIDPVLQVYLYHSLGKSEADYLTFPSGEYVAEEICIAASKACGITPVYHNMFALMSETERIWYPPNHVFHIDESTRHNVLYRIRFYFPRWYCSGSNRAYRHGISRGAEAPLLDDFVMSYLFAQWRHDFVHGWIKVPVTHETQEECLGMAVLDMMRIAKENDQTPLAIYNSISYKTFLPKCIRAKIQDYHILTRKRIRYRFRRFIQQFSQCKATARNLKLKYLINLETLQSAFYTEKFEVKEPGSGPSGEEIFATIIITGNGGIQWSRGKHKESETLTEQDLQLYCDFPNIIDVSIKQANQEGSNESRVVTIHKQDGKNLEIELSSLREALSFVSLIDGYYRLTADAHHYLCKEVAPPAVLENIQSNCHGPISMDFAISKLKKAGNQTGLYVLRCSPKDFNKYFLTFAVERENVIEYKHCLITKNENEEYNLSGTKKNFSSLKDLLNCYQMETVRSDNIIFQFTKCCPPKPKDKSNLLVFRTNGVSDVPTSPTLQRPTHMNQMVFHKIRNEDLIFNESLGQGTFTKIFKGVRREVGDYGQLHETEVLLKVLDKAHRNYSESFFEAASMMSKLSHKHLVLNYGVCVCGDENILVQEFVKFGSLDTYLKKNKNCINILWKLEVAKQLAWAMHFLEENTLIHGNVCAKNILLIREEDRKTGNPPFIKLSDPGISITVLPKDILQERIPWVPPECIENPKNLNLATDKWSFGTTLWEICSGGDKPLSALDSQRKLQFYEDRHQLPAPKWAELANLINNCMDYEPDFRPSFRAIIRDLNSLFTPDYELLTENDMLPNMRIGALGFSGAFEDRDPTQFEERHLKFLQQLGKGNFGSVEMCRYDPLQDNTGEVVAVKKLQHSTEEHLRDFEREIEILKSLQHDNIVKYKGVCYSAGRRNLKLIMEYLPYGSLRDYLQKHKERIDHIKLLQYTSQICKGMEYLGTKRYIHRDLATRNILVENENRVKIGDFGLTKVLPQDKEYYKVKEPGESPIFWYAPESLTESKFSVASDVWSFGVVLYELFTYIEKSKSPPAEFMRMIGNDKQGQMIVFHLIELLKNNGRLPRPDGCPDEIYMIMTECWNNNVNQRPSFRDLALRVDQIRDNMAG
Sequence of MERTK (Q12866 whole entry, looked up): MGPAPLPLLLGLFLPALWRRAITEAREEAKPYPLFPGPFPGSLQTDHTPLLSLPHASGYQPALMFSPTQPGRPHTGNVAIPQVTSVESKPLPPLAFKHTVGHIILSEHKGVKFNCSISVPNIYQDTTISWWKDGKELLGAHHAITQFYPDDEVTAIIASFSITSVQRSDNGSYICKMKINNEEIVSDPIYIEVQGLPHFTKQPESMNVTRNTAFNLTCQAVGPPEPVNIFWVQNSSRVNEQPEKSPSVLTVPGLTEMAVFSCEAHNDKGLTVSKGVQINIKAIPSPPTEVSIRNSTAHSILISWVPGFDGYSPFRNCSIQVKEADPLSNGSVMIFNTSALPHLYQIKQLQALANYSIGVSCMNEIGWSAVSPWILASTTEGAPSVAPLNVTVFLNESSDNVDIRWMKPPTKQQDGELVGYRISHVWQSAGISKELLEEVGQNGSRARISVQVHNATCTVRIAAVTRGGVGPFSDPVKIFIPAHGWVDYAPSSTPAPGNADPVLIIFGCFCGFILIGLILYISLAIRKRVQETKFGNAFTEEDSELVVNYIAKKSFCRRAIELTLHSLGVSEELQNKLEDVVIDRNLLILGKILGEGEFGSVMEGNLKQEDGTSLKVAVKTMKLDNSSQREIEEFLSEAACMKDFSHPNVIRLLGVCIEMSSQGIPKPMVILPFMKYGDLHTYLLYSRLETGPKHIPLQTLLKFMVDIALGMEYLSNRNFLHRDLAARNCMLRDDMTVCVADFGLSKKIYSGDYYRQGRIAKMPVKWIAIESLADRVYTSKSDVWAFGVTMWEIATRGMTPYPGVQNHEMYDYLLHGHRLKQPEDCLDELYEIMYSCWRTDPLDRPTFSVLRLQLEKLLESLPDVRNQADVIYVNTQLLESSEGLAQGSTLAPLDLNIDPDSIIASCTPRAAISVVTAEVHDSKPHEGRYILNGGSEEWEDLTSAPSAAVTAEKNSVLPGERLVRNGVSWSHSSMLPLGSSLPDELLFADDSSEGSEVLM
Sequence of Fyn (P06241 whole entry, looked up): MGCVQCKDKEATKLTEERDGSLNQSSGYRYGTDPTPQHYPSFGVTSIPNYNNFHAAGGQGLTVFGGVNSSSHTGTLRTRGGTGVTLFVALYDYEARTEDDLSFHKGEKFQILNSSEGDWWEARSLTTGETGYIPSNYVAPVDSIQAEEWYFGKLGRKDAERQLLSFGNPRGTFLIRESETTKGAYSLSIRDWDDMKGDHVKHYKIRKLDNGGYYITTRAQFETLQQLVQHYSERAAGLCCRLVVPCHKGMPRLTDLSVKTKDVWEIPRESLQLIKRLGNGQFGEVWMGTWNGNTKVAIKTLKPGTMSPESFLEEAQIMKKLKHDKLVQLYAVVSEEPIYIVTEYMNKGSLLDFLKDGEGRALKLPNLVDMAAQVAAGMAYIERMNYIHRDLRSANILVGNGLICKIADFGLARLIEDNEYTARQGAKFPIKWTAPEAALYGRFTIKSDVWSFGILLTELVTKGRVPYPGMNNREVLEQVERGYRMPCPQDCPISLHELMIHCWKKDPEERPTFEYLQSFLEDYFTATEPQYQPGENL
Sequence of FGFR3 (P22607 whole entry, looked up): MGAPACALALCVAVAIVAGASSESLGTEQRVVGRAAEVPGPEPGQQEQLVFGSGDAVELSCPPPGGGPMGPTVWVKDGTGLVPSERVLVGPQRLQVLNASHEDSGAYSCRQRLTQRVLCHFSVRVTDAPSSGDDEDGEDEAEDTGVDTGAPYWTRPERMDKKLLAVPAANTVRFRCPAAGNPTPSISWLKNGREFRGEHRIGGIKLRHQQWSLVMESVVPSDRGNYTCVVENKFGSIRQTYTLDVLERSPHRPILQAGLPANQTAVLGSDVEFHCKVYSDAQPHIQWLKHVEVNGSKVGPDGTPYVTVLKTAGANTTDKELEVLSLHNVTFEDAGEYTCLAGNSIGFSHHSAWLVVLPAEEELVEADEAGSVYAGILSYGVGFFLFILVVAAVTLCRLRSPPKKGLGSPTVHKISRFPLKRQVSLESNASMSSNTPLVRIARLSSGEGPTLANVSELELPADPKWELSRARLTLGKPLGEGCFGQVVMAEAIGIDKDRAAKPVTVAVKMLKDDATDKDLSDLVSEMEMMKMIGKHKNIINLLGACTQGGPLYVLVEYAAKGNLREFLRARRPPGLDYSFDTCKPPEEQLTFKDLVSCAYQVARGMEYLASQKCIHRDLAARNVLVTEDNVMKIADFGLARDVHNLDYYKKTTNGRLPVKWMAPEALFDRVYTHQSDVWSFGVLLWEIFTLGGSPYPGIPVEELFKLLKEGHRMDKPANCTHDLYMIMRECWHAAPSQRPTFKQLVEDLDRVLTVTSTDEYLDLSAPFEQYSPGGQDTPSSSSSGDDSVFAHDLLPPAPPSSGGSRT
Sequence of Hck (P08631 whole entry, looked up): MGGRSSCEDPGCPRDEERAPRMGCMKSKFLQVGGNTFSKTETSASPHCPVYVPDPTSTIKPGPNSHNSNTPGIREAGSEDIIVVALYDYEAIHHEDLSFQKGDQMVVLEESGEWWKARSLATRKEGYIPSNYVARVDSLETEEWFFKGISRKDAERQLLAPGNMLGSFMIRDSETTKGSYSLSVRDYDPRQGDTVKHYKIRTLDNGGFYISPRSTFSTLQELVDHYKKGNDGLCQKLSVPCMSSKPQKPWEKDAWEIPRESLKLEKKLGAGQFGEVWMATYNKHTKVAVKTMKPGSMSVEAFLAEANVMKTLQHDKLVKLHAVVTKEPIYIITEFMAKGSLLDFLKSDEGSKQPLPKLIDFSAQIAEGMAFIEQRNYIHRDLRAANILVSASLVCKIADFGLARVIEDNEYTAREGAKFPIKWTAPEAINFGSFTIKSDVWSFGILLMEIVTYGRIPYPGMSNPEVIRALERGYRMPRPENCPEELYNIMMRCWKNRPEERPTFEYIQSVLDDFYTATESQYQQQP
Sequence of Grb2 SH2 (P62993 whole entry, looked up): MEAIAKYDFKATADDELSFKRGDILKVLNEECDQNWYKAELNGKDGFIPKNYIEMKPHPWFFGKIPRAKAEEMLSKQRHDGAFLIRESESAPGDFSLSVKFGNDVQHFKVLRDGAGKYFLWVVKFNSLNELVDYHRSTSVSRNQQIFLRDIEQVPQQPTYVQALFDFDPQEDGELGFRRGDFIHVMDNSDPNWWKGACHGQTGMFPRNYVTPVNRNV
Sequence of Fes (P07332 whole entry, looked up): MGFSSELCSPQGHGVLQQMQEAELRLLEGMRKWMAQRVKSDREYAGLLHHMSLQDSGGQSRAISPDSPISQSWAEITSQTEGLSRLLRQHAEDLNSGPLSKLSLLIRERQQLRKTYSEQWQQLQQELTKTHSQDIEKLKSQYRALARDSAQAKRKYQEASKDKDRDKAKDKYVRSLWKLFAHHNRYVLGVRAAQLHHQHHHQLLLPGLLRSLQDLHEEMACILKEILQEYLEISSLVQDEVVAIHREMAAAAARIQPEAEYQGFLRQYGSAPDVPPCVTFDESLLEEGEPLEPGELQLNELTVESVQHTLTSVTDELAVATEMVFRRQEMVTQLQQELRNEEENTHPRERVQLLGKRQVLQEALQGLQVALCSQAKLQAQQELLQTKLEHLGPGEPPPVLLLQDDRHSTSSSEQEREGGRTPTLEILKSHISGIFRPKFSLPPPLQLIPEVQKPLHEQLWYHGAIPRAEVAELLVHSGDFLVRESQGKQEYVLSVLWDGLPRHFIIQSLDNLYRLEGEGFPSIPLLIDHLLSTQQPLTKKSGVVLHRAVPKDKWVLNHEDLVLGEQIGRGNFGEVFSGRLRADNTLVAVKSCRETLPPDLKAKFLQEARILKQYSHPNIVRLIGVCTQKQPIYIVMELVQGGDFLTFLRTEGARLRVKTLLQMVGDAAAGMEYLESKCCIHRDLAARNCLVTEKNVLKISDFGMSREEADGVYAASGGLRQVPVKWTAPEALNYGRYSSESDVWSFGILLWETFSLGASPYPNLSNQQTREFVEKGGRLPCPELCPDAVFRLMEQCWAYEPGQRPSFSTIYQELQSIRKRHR

Sequence | SH2 binding enrichment (Grb2 SH2) | SH2 binding enrichment (SHP2-C SH2) | SH2 binding enrichment (c-Src SH2) | phosphorylation enrichment (Hck) | phosphorylation enrichment (FGFR1) | phosphorylation enrichment (Fyn) | phosphorylation enrichment (MERTK) | phosphorylation enrichment (Jak2) | phosphorylation enrichment (EPHB1) | phosphorylation enrichment (Fer (mouse)) | phosphorylation enrichment (EPHB2) | phosphorylation enrichment (AncSZ) | phosphorylation enrichment (FGFR3) | phosphorylation enrichment (c-Src) | phosphorylation enrichment (Fes) | phosphorylation enrichment (c-Abl (mouse))
NYADPYRQLQY [CTNND2_Y503] | 0.892 | 1.12 | 1.5 | 0.615 | 3.72 | 0.43 | 2.57 | 0.672 | 9.61 | 0.464 | 10.8 | 0.776 | 1.99 | 0.551 | 0.747 | 0.687
PDGREYIFVDP [PDGFRA_Y572_H570R_YF] | 0.789 | 0.618 | 0.543 | 0.647 | 1.86 | 0.649 | 0.49 | 1.02 | 0.62 | 0.615 | 0.532 | 2.12 | 1.2 | 0.431 | 1.08 | 0.488
PDNKPYIFKVF [PIK3AP1_Y553_E551K] | 1.08 | 1.03 | 0.568 | 0.619 | 0.681 | 0.665 | 0.428 | 1.03 | 0.752 | 0.728 | 0.919 | 1.37 | 0.831 | 0.526 | 1.75 | 0.79
PDSVDYPKKGF [CTSK_Y121_R122P_YF] | 0.872 | 0.486 | 0.531 | 1.15 | 1.12 | 1.17 | 1.31 | 1.97 | 1.48 | 1.52 | 1.13 | 1.75 | 1.05 | 1.52 | 1.78 | 2.12
PELIDYGKLRK [ACTN1_Y193] | 0.581 | 0.6 | 0.478 | 0.446 | 0.714 | 0.587 | 0.62 | 0.368 | 0.441 | 0.465 | 0.668 | 0.86 | 0.544 | 0.404 | 0.8 | 0.537
PEPHIYAVADV [MYO9A_Y216_L211P] | 0.909 | 0.654 | 4.08 | 3.16 | 0.667 | 3.21 | 2.97 | 0.695 | 1.11 | 3.02 | 2.18 | 1.11 | 1.01 | 3.72 | 1.55 | 25
PHMQTYEVDHN [SDHB_Y61_L65H] | 1.09 | 0.604 | 0.591 | 0.506 | 0.676 | 1.03 | 0.425 | 0.94 | 0.758 | 0.571 | 3.83 | 1.31 | 0.783 | 1.04 | 1.01 | 0.864
PIAPVYAASMV [ACAT1_Y331] | 0.882 | 0.699 | 0.506 | 13.5 | 0.744 | 14.3 | 5.19 | 1.34 | 2.45 | 8.12 | 2.19 | 0.837 | 0.548 | 10.5 | 1.07 | 48.5
PLDGEYFTLHI [TP53_Y327_Q331H] | 0.852 | 0.594 | 0.365 | 1.51 | 5.77 | 2.35 | 0.752 | 4.23 | 0.808 | 0.816 | 0.97 | 2.49 | 4.7 | 2.97 | 1.68 | 1.93
PLDGEYFTLQI [TP53_Y327] | 0.686 | 0.718 | 0.344 | 2.55 | 9.82 | 4.48 | 0.663 | 4.17 | 1.32 | 1.19 | 1.36 | 4.14 | 7.34 | 3.81 | 1.47 | 1.57
PLDGEYSTLQI [TP53_Y327_F328S] | 0.399 | 0.272 | 0.433 | 3.08 | 1.77 | 2.2 | 0.75 | 1.33 | 1.27 | 3.56 | 1.17 | 2.13 | 1.18 | 2.97 | 1.53 | 1.33
PLGVLYKVKVF [PTS_Y128_V124L_YF] | 0.88 | 0.896 | 0.494 | 0.553 | 0.562 | 0.801 | 0.446 | 1.23 | 0.922 | 0.692 | 0.824 | 1.54 | 0.862 | 0.311 | 1.64 | 0.973
PLQHVYKIGGI [EEF1A2_Y254_D252H] | 0.941 | 0.588 | 0.517 | 0.865 | 0.649 | 0.643 | 0.739 | 1.52 | 0.73 | 0.696 | 0.71 | 0.964 | 0.733 | 0.959 | 1.06 | 0.766
PLQKTYNYNVL [SLC4A1_Y553] | 0.708 | 0.766 | 1.12 | 0.596 | 0.711 | 0.495 | 0.43 | 0.986 | 0.66 | 0.628 | 0.689 | 0.872 | 0.691 | 0.565 | 1.08 | 0.881
PMDTYYDSTRG [DYNC2H1_Y2231] | 0.666 | 0.44 | 0.742 | 1.86 | 3.15 | 1.43 | 0.827 | 1.14 | 1.28 | 0.799 | 1.37 | 1.5 | 2.3 | 1.91 | 1.31 | 1.15
PMWHPYKADVT [TP53TG5_Y255_V257A] | 0.791 | 1.04 | 0.484 | 0.615 | 0.309 | 0.565 | 0.428 | 0.911 | 0.657 | 0.588 | 0.572 | 0.851 | 0.6 | 0.756 | 1.12 | 0.94
